Here are results for 15 molecules from patent publication US20180162928A1 (Janssen / Centocor, published 2018).

B1: ISOP121BR5P1C3 (designed binder, not shown: small tags and cut ends)
chain: LPAPKNLVVSRVTEDSARLSWASARDYFDSFLIQYQESEKVGEAIVLTVPGSERSYDLTGLKPGTEYTVSIYGVLAIAQITHWFSNPLSAIFTT
notes: FN3 domain; E. coli lysate in the ELISA
B2: ISOP121BR5P1C9 (designed binder, not shown: small tags and cut ends)
chain: LPAPKNLVVSRVTEDSARLSWIWPDKHEFFDSFLIQYQESEKVGEAIVLTVPGSERSYDLTGLKPGTEYTVSIYGVYDRKYANWSSNPLSAIFTT
notes: as for B1
B3: ISOP121ER5P1E7 (designed binder, not shown: small tags and cut ends)
chain: LPAPKNLVVSRVTEDSARLSWTAPDAAFDSFTIGYTETPPRGEAIVLTVPGSERSYDLTGLKPGTKYYVSILGVKGGLGSWPLSAIFTT
notes: as for B1
B4: ISOP121BR5P1E2 (designed binder, not shown: small tags and cut ends)
chain: LPAPKNLVVSRVTEDSARLSWWFPLEWFDSFLIQYQESEKVGEAIVLTVPGSERSYDLTGLKPGTEYTVSIYGVYTREHKSVWASNPLSAIFTT
notes: as for B1
B5: ISOP121AR5P1G10 (designed binder, not shown: small tags and cut ends)
chain: LPAPKNLVVSRVTEDSARLSWEWLEHFDSFLIQYQESEKVGEAIVLTVPGSERSYDLTGLKPGTEYTVSIYGVYQRKVEFHSNPLSAIFTTT
notes: as for B1
B6: ISOP121BR5P1H6 (designed binder, not shown: small tags and cut ends)
chain: LPAPKNLVVSRVTEDSARLSWGYIDVSYFDSFLIQYQESEKVGEAIVLTVPGSERSYDLTGLKPGTEYTVSIYGVYSRPKAEFTSNPLSAIFTT
notes: as for B1
B7: ISOP121GR5P1A2 (designed binder, not shown: small tags and cut ends)
chain: LPAPKNLVVSRVTEDSARLSWTAPDAAFDSFKIQYIERYIPGEAIQLNVPGSERSYDLTGLKPGTEYSVIIPGVKGGRNSFPLWAWFTT
notes: as for B1
B8: ISOP121BR5P1D1 (designed binder, not shown: small tags and cut ends)
chain: LPAPKNLVVSRVTEDSARLSWKWGGEFFDSFLIQYQESEKVGEAIVLTVPGSERSYDLTGLKPGTEYTVSIYGVYQRNWHHWYSNPLSAIFTT
notes: as for B1
B9: ISOP121AR5P1F3 (designed binder, not shown: small tags and cut ends)
chain: LPAPKNLVVSRVTEDSARLSWPFNNYSEHFDSFLIQYQESEKVGEAIVLTVPGSERSYDLTGLKPGTEYTVSIYGVYERKTAFYSNPLSAIFTT
notes: as for B1
B10: ISOP121BR5P1A6 (designed binder, not shown: small tags and cut ends)
chain: LPAPKNLVVSRVTEDSARLSWASWLVAFFDSFLIQYQESEKVGEAIVLTVPGSERSYDLTGLKPGTEYTVSIYGVYQRHASAFVSNPLSAIFTT
notes: as for B1
B11: ISOP121AR5P1F7 (designed binder, not shown: small tags and cut ends)
chain: LPAPKNLVVSRVTEDSARLSWQEHWDTSSNFDSFLIQYQESEKVGEAIVLTVPGSERSYDLTGLKPGTEYTISIYGVYNRKVLFYSNPLSAIFTT
notes: as for B1
B12: ISOP121AR5P1H5 (designed binder, not shown: small tags and cut ends)
chain: LPAPKNLVVSRVTEDSARLSWEDAVKHIWFDSFLIQYQESEKVGEAIVLTVPGSERSYDLTGLKPGTEYTVSIYGVWIASVWRSNPLSAIFTT
notes: as for B1
B13: ISOP121GR5P1G11 (designed binder, not shown: small tags and cut ends)
chain: LPAPKNLVVSRVTEDSARLSWTAPDAAFDSFQINYHEYGQNGEAIQLIVPGSERSYDLTGLKPGTEYGVWIWGVKGGIRSKPLWAFFTT
notes: as for B1
B14: ISOP194AR9P1H10 (designed binder, not shown: small tags and cut ends)
chain: LPAPKNLVISRVTEDSARLSWPAHYHSAFFDSFLIQYQESEKVGEAIVLTVPGSERSYDLTGLKPGTEYTVSIYGVYQRKVEFHSNPLSAIFTT
notes: as for B1
B15: ISOP194BR9P1A9 (designed binder, not shown: small tags and cut ends)
chain: LPAPKNLVVSRVTEDSARLSWFNADEEYFDSFLIQYQESEKVGEAIVLTVPGSERSYDLTGLKPGTEYTVSIYGVYDRKVKFVQSNPLSAIFTT
notes: as for B1

Sequence of human serum albumin (human) (P02768 25-609 limits assumed): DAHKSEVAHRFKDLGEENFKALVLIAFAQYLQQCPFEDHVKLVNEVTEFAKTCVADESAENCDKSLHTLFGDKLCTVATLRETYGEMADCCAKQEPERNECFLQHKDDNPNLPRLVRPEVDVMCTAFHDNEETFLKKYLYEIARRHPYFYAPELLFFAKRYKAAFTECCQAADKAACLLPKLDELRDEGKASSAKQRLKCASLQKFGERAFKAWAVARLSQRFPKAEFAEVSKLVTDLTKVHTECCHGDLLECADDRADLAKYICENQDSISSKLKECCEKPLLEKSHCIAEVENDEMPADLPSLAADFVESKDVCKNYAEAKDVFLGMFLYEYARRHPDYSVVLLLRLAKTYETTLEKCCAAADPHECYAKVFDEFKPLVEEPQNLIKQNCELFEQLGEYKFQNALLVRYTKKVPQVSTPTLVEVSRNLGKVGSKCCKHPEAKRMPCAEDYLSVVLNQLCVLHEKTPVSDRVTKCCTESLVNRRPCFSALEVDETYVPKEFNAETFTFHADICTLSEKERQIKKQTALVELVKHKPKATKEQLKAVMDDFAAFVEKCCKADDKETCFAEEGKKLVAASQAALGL

One experiment has as its target human serum albumin (human) (UniProt P02768). The experiment can be described thus: ELISA, lysate on plate-bound antigen. In general terms: In an ELISA, binding on a coated surface is turned into a signal by an enzyme label.
B1 showed an ELISA HSA (RSU) of 480 RSU.

B2 yielded an ELISA HSA (RSU) of 1040 RSU.

Regarding B3, the ELISA HSA (RSU) was determined as 560 RSU.

In turn, B4 showed an ELISA HSA (RSU) of 720 RSU.

Consider B5, for which the ELISA HSA (RSU) came out at 1280 RSU.

Molecule B6 yielded an ELISA HSA (RSU) of 1040 RSU.

As to B7, the ELISA HSA (RSU) turned out to be 720 RSU.

The molecule B8 gave an ELISA HSA (RSU) of 960 RSU.

Consider B9, for which the ELISA HSA (RSU) is 960 RSU.

Take B10: the ELISA HSA (RSU) was determined as 720 RSU.

On to B11, for which the ELISA HSA (RSU) stood at 1040 RSU.

Take B12: the ELISA HSA (RSU) came to 1120 RSU.

In turn, B13 displayed an ELISA HSA (RSU) of 1040 RSU.

For the next experiment, the target named is unrelated Fc-fused recombinant protein. The experiment can be described thus: ELISA, lysate on plate-bound antigen.
As to B1, the ELISA Fc Control (RSU) is 640 RSU.

With B2, the ELISA Fc Control (RSU) worked out at 1120 RSU.

With B3, the ELISA Fc Control (RSU) worked out at 480 RSU.

Regarding B4, the ELISA Fc Control (RSU) worked out at 800 RSU.

As for B5, the ELISA Fc Control (RSU) was found to be 1360 RSU.

In the case of B6, the ELISA Fc Control (RSU) amounted to 1440 RSU.

Turning to B7, the ELISA Fc Control (RSU) is 720 RSU.

As to B8, the ELISA Fc Control (RSU) was found to be 1040 RSU.

As to B9, the ELISA Fc Control (RSU) amounted to 800 RSU.

In the case of B10, the ELISA Fc Control (RSU) turned out to be 720 RSU.

On to B11, for which the ELISA Fc Control (RSU) was 720 RSU.

With B12, the ELISA Fc Control (RSU) came to 960 RSU.

Turning to B13, the ELISA Fc Control (RSU) came out at 960 RSU.

The target in the next experiment is T1, recombinant biotinylated PD-L1 (rhPD-L1/Fc Chimera, R&D Systems 156-B7) (human, UniProt Q9NZQ7 19-238, biotinylated (sites not given)).
T1 construct: Bought Fc chimera; also called human PD-L1
T1 sequence (Q9NZQ7 19-238, change not shown): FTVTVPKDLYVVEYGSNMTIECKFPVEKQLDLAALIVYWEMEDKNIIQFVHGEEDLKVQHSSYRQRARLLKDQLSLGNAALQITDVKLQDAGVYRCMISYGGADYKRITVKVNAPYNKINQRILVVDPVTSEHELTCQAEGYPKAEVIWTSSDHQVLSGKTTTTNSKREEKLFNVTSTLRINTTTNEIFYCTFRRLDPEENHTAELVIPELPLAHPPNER
The experiment can be described thus: ELISA, lysate on plate-bound antigen. A digest of the protocol:
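On streptavidin plates coated with biotinylated PD-L1 (unrelated Fc-fusion protein and HSA as negative controls), diluted lysate was applied for 1 h. Bound FN3 domains detected with HRP-conjugated anti-FN3 antibody and POD substrate.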
Consider B1, for which the “ELISA PD-L1 Fc (RSU)” value turned out to be 177000 RSU.

In the case of B2, the “ELISA PD-L1 Fc (RSU)” value was 226000 RSU.

As for B3, the “ELISA PD-L1 Fc (RSU)” value stood at 251000 RSU.

For B4, the “ELISA PD-L1 Fc (RSU)” value was found to be 137000 RSU.

Take B5: the “ELISA PD-L1 Fc (RSU)” value came out at 232000 RSU.

Consider B6, for which the “ELISA PD-L1 Fc (RSU)” value was found to be 74600 RSU.

In the case of B7, the “ELISA PD-L1 Fc (RSU)” value was found to be 61700 RSU.

Turning to B8, the “ELISA PD-L1 Fc (RSU)” value amounted to 186000 RSU.

In the case of B9, the “ELISA PD-L1 Fc (RSU)” value amounted to 180000 RSU.

With B10, the “ELISA PD-L1 Fc (RSU)” value amounted to 11000 RSU.

For B11, the “ELISA PD-L1 Fc (RSU)” value turned out to be 64000 RSU.

Take B12: the “ELISA PD-L1 Fc (RSU)” value came to 171000 RSU.

As for B13, the “ELISA PD-L1 Fc (RSU)” value was 240000 RSU.

Take B14: the “ELISA PD-L1 Fc (RSU)” value turned out to be 5.21e+06 RSU.

B15: the “ELISA PD-L1 Fc (RSU)” value amounted to 1.9e+07 RSU.

The target in a further experiment is unrelated Fc-fused recombinant protein. The experiment can be described thus: ELISA, lysate on plate-bound antigen. This is another data set of the same source.
With B14, the ELISA Fc Control (RSU) came to 4400 RSU.

Consider B15, for which the ELISA Fc Control (RSU) was found to be 2320 RSU.
